Source: publication PMC3579940

How the values were obtained:
biotin-AR-CTF = assay: SPR; BIAcore S51; biotin-EGFR-ligand-CTFs immobilised (~1000 RU) on streptavidin chips; GST-ZnF5-8 0.03-1.0 µM injected at 30 µL/min for 2 min, 25°C; 10 mM HEPES pH 7.4, 150 mM NaCl, 0.005% Surfactant P20; KD = kd/ka
biotin-EPR-CTF = assay: as above

Substance: recombinant GST-tagged ZnF5-8 of PLZF (domain or fragment)
- Kd (biotin-AR-CTF): 76.5 nM
- koff (biotin-AR-CTF): 0.00144 s⁻¹
- kon (biotin-AR-CTF): 18700 M⁻¹ s⁻¹
- Kd (biotin-EPR-CTF): 146 nM
- koff (biotin-EPR-CTF): 0.000806 s⁻¹
- kon (biotin-EPR-CTF): 5610 M⁻¹ s⁻¹
